Like-named read-outs stand apart in the source and are kept apart here. No end group written: not given here.
B1: soluble IL-2Rβ 31–230 (residues 31–230 of the IL-2Rβ chain, most of the extracellular part) (domain or fragment, human, UniProt P14784 31-230, looked up)
chain: TSQFTCFYNSRANISCVWSQDGALQDTSCQVHAWPDRRRWNQTCELLPVSQASWACNLILGAPDSQKLTTVDIVTLRVLCREGVRWRVMAIQDFKPFENLRLMAPISLQVVHVETHRCNISWEISQASHYFERHLEFEARTLSPGHTWEEAPLLTLKQKQEWICLETLTPDTQYEFQVRVKPLQGEFTTWSPWSQPLAFR

Legend:
[1] = Diffusion–sedimentation equilibrium; assay type: physicochemical; settings: 150 μM peptide
[2] = biological target: the molecule itself; assay: AUC
[3] = biological target: the molecule itself; assay: AUC; remark: listed apart in the source
[4] = biological target: the molecule itself; assay: AUC; remark: listed apart in the source
[5] = biological target: the molecule itself; assay: AUC; remark: listed apart in the source

Molecule | stoichiometry N [3] | stoichiometry N [4] | other results
SSTKKTQLQLQ [p5–15] |  |  | quaternary structure at 150 μM [1]: dimers
B1 |  |  | Kd [2]: 3000 nM; stoichiometry N [2]: 2
APTSSSTKKTQLQLEHLLLDLQMILNGINN-NH2 [peptide p1–30 (amino acids 1–30 of human IL-2, covering the entire α helix A)] | 8 |  | 
APTSSSTKKTQLQLEHLLLDLQMILNGINNC(fluorescein)-NH2 [p1–30Cys labeled on the terminal Cys31 with a fluorescein group (p1–30Cys-FLC)] | 8 | 4 | 
TQLQLEHLLLDLQMILNGINN [IL-2 peptide p10–30] |  |  | stoichiometry N [5]: 4
APTSSSTKKTQLQLEHLLLDLQMILNGINNC [IL-2 peptide p1–30Cys] | 8 | 4 | 

From publication PMC2195822 (The Journal of Experimental Medicine, 2000)
